In patent US20250163130A1, “LIGAND GATED ION CHANNELS AND METHODS OF USE” (Trames Bio, Inc., priority 2022, published 2025):
Changes are numbered by the printed parent chain. Numbers in names are those of the source.

B1: CODA1343: α7-nAChR(Gly-cys) LBD: GlyRα3 isoform K IPD, SEQ ID NO: 71 (protein)
chain: MRCSPGGVWLALAASLLHVSLQGEFQRKLYKELVKNYNPLERPVANDSQPLTVYFSLSLLQIMDVDEKNQVLTTNIWLQMSWTDHYLQWNVSEYPGVKTVRFPDGQIWKPDILLYNSADERFDATFHTNVLVNSSGHCQYLPPGIFKSSCPMDLKNFPMDVQTCKLKFGSWSYGGWSLDLQMQEADISGYIPNGEWDLVGIPGKRSERFYECCKEPYPDVTFTVTMRRRMGYYLIQMYIPSLLIVILSWVSFWINMDAAPARVALGITTVLTMTTQSSGSRASLPKVSYVKAIDIWMAVCLLFVFSALLEYAAVNFVSRQHKELLRFRRKRKNKDDEVRESRFSFTAYGMGPCLQAKDGMTPKGPNHPVQVMPKSPDEMRKVFIDRAKKIDTISRACFPLAFLIFNIFYWVIYKILRHEDIHQQQD
modifications: CHRNA7_(Cys-loop)/GLRA3 isoform K
B2: CODA1345: α7-nAChR LBD: GlyRα3 isoform K IPD, SEQ ID NO: 70 (protein)
chain: B1 chain with P151Y, M152I, L154V, K155R, N156W, M159F, T163H
modifications: CHRNA7/GLRA3 isoform K
B3: CODA1344: α7-nAChR LBD: GlyRα3 isoform L IPD, SEQ ID NO: 63 (protein)
chain: MRCSPGGVWLALAASLLHVSLQGEFQRKLYKELVKNYNPLERPVANDSQPLTVYFSLSLLQIMDVDEKNQVLTTNIWLQMSWTDHYLQWNVSEYPGVKTVRFPDGQIWKPDILLYNSADERFDATFHTNVLVNSSGHCQYLPPGIFKSSCYIDVRWFPFDVQHCKLKFGSWSYGGWSLDLQMQEADISGYIPNGEWDLVGIPGKRSERFYECCKEPYPDVTFTVTMRRRMGYYLIQMYIPSLLIVILSWVSFWINMDAAPARVALGITTVLTMTTQSSGSRASLPKVSYVKAIDIWMAVCLLFVFSALLEYAAVNFVSRQHKELLRFRRKRKNKTEAFALEKFYRFSDMDDEVRESRFSFTAYGMGPCLQAKDGMTPKGPNHPVQVMPKSPDEMRKVFIDRAKKIDTISRACFPLAFLIFNIFYWVIYKILRHEDIHQQQD
modifications: CHRNA7/GLRA3 isoform L
B4: CODA1298: α7-nAChR(Gly-cys) LBD: GlyRα2 IPD, SEQ ID NO: 65 comprising T225I mutation (protein)
chain: MRCSPGGVWLALAASLLHVSLQGEFQRKLYKELVKNYNPLERPVANDSQPLTVYFSLSLLQIMDVDEKNQVLTTNIWLQMSWTDHYLQWNVSEYPGVKTVRFPDGQIWKPDILLYNSADERFDATFHTNVLVNSSGHCQYLPPGIFKSSCPMDLKNFPMDVQTCKLKFGSWSYGGWSLDLQMQEADISGYIPNGEWDLVGIPGKRSERFYECCKEPYPDVTFTVIMRRRMGYYLIQMYIPSLLIVILSWVSFWINMDAAPARVALGITTVLTMTTQSSGSRASLPKVSYVKAIDIWMAVCLLFVFAALLEYAAVNFVSRQHKEFLRLRRRQKRQNKEEDVTRESRFNFSGYGMGHCLQVKDGTAVKATPANPLPQPPKDGDAIKKKFVDRAKRIDTISRAAFPLAFLIFNIFYWITYKIIRHEDVHKK
modifications: CHRNA7 (Cys-loop)/GLRA2
B5: CODA1237: α7-nAChR(Gly-cys) LBD: GlyRα2 IPD, SEQ ID NO: 65 (protein)
chain: B4 chain with I225T
modifications: CHRNA7 (Cys-loop)/GLRA2

Tests used:
Type in all cases: cell-based
CODA1237 = target: T1, CODA1237 (Homo sapiens, UniProt P36544, F159M/H163T/I152M/R155K/V154L/W156N/Y151P); experiment: Anion reporter (YFP quench) plate assay, ligand response of cells expressing CODA1237 compared with CODA71; settings: FIG. 1, various ligand doses
T1 construct: expressed in transfected cells; host or cells: Lenti-X 293T (LX293T, Clontech) stably expressing mutant YFP (H148Q/I152L) reporter
T1 sequence (P36544 with tags, fused parts or gaps Y151P/I152M/V154L/R155K/W156N/F159M/H163T): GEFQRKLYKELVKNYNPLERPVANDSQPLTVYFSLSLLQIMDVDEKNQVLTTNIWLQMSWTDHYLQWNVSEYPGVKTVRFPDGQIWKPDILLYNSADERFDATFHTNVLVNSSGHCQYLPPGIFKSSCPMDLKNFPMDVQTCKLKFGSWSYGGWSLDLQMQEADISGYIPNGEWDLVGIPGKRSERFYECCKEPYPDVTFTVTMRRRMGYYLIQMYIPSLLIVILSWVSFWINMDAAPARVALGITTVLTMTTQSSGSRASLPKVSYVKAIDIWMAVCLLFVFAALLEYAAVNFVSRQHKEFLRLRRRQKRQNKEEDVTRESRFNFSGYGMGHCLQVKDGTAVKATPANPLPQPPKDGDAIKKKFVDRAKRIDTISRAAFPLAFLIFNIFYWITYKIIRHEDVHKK

HEK293T cells = tested on: HEK293T cells
[1] = tested on: Lenti-X 293T cells expressing mutant YFP reporter; experiment: Anion reporter (YFP quench) plate assay, responsiveness of engineered receptors to acetylcholine or TC-5619; settings: FIG. 3, increasing doses of acetylcholine

Molecule	Responsiveness (percent quench of YFP fluorescence) of cells expressing CODA1237 compared with cells expressing CODA71 (CODA1237)	Percentage of surface expressing (α-bungarotoxin staining positive) cells (HEK293T cells)	Surface expression level (mean fluorescent intensity of α-bungarotoxin staining positive cells) (HEK293T cells)	Responsiveness to acetylcholine (percent quench of YFP) using CODA71 as the reference point [1]
c1ccc(-c2nnc(O[C@@H]3C4CC5C[C@H]3CN(C5)C4)s2)cc1 [ABT-126]	more responsive			
O=C(N[C@@H]1CN2CCC1CC2)c1n[nH]c2ccccc12 [RG3487]	more responsive			
B1		higher percentage of surface expressing cells	higher surface expression	higher responsiveness
B2		higher percentage of surface expressing cells	higher surface expression	
B3				lower responsiveness
B4			improves the surface expression level	
B5			higher surface expression	
